Assay results as given in PMC1287507, “Ankyrin-B Coordinates the Na/K ATPase, Na/Ca Exchanger, and InsP3 Receptor in a Cardiac T-Tubule/SR Microdomain” (PLoS Biology, 2005).
Each block holds one molecule with its values, some of them ahead of it.

Legend:
[1] = target: 220-kDa ankyrin-B (endogenous, mouse) (mouse (endogenous in mouse heart and brain)); assay: co-IP; detergent-soluble lysates of ankyrin-B+/- mouse heart, doubled amount of input lysate, compared with wild-type heart
[2] = target: InsP3R purified from bovine brain cerebellum (bovine, UniProt Q9TU34 1-2709, ^125I-labeled in the saturation binding; biotinylated with NHS-LC-biotin in the reconstitution); assay: radioligand binding; saturation binding: increasing concentrations of ^125I-labeled protein with glutathione Sepharose-immobilized GST-ankyrin-B membrane-binding domain, 2 h at 25 °C; binding to GST beads subtracted; Scatchard analysis; conditions: both partners purified

loss of co-immunoprecipitation in ankyrin-B+/- heart against wild-type heart [1]: > 60%
Molecule: Na/Ca exchanger 1 (endogenous, mouse) (from UniProt P70414 33-970) (natural protein)

Kd [2]: 3 nM
B1: GST-ankyrin-B membrane-binding domain (domain or fragment)
chain: KSDSNASFLRAARAGNLDKVVEYLKGGIDINTCNQNGLNALHLAAKEGHVGLVQELLGRGSSVDSATKKGNTALHIASLAGQAEVVKVLVKEGANINAQSQNGFTPLYMAAQENHIDVVKYLLENGANQSTATEDGFTPLAVALQQGHNQAVAILLENDTKGKVRLPALHIAARKDDTKSAALLLQNDHNADVQSKMMVNRTTESGFTPLHIAAHYGNVNVATLLLNRGAAVDFTARNGITPLHVASKRGNTNMVKLLLDRGGQIDAKTRDGLTPLHCAARSGHDQVVELLLERGAPLLARTKNGLSPLHMAAQGDHVECVKHLLQHKAPVDDVTLDYLTALHVAAHCGHYRVTKLLLDKRANPNARALNGFTPLHIACKKNRIKVMELLVKYGASIQAITESGLTPIHVAAFMGHLNIVLLLLQNGASPDVTNIRGETALHMAARAGQVEVVRCLLRNGALVDARAREEQTPLHIASRLGKTEIVQLLLQHMAHPDAATTNGYTPLHISAREGQVDVASVLLEAGAAHSLATKKGFTPLHVAAKYGSLDVAKLLLQRRAAADSAGKNGLTPLHVAAHYDNQKVALLLLEKGASPHATAKNGYTPLHIAAKKNQMQIASTLLNYGAETNIVTKQGVTPLHLASQEGHTDMVTLLLDKGANIHMSTKSGLTSLHLAAQEDKVNVADILTKHGADQDAHTKLGYTPLIVACHYGNVKMVNFLLKQGANVNAKTKNGYTPLHQAAQQGHTHIINVLLQHGAKPNATTANGNTALAIAKRLGYISVVDTLKVVTEEVTTTTTTITEKHKLNVPETMTEVLDVSDEEGDDTMTGDGGEYLRPEDLKELGDD

More lines, now with the values behind:

Molecule: Na/K ATPase (endogenous, mouse; isoform not told) (from UniProt Q8VDN2 1-1023) (natural protein)
loss of co-immunoprecipitation in ankyrin-B+/- heart against wild-type heart [1]: > 60%

Molecule: inositol 1,4,5-trisphosphate receptor (endogenous, mouse) (from UniProt P11881 1-2749)
loss of co-immunoprecipitation in ankyrin-B+/- heart against wild-type heart [1]: > 60%
